The record followed here is the nanobody polyreactivity screen of Harvey et al. (2022).

The nature of the series: yeast display, Sf9 membrane polyspecificity reagent, FACS + sequencing; frameworks hold sequencing errors. Summed up: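 Sorting gates, low and high (top ~1%), were placed on anti-HA fluorescence to track expression and on streptavidin fluorescence to track reagent binding. A clone's polyreactivity label is taken from the gate it came out of. The reagent was 10% biotinylated, detergent-solubilized Sf9 membrane, applied for 1 hour at 4 °C to galactose-induced yeast display cells.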
For “QVQLVESGGGLVQAGGSLRLSCAASGFIFLLYDMGWYRQAPGKERELVAAISRSGGSTYYADSVKGRFTISRDNAKNTVYLQMNSLKPEDTAVYYCNAAYRPWRGGYYPVGYYYWGQGTQVTVSS”, the “polyreactivity (PSR sort gate)” value was “high polyreactivity”.
Consider “QVQLVESGGGLVQAGGSLRLSCAASGRIFKSYAMGWYRQAPGKERELVATISISGGSTYYADSVKGRFTISRDNEKNTVYLQMNSLKPEDNAVYYCNVDFPITEYYYWGNGTQVTVSS”, for which the “polyreactivity (PSR sort gate)” value was “low polyreactivity”.
Consider “QVQLVESGGGLVQAGGSLRLSCAASGLNFSYYAMGWYRQAPGKERELVAAINSGGSTYYADSVKGRFTISRDNAKNTVYLQMNRLKQEDTAVYYCAAHLWYHGHLFDYWGQGTQVTVSS”, for which the “polyreactivity (PSR sort gate)” value was “high polyreactivity”.
On to “QVQLVESGGGLVQAGGSLRLSCAASGSIFSSNAMGWYRQAPGKERELVAAITVSGGSTYYADSVKGRFTISRDNAKNTVYLQMNSLKPEDTAVYDCAVPVTYYFDGSWWRYDYWGQGTQVTVSS”, for which the “polyreactivity (PSR sort gate)” value was “high polyreactivity”.
In the case of “QVQLVESAGGLVQAGGILRLSCAASGFTFYFYAMGWYRQSPGKERELVAAISRSGSRTYYADSVKGRFTISRDNAKNTVYLQMNSLKPEDTAVYYCARVRPRGLYFVLHYDYWGQGTQVTVSS”, the “polyreactivity (PSR sort gate)” value is listed as “high polyreactivity”.
Regarding “QVQLVESGGGLVQAGGSLRLSCAASGSIFPQNAMAWYRQAPGKERELVASISSGGRTNYADSVKGRFTISRDNAKNTVYLQMNSLKPEDTAVYYCNARYRGYYGPKTHGVTYYYWGQGTQVTVSS”, the “polyreactivity (PSR sort gate)” value was “low polyreactivity”.
In the case of “QVQLEESGGGLVQAGGSLRLSCAASGNILWKNAMGWYRQAPGKERELVAAITRSGGSTYYADSVKGRFTISRDNAKNTVYLQMNSLKPEDTAVYYCATRNLGYRPYRYDYWGQGTQVTVSS”, the “polyreactivity (PSR sort gate)” value was “high polyreactivity”.
As to “QVQLVESGGGLVQAAGSLRLSCAASGSTFADNAMGWYRQAPGKEREMVAANSRRGGSTYYADSVKGRFTISLDNAKNTVYLQMNSLKPEDTAVYYCAKPSGLVVNQYRAGMEYWGQGTQVTVSS”, the “polyreactivity (PSR sort gate)” value is “high polyreactivity”.
Turning to “QVQLVESGGGLVQAGGSLRLSCAASGRIFRLYAMGWYRQSPGKERELVATITSGGTYYADSVKGRFTISRDNAKNTVYLQMNSLKPEDTAVYYCTARRRLRYDYWGQGTQVTVSS”, the “polyreactivity (PSR sort gate)” value is recorded as “low polyreactivity”.
The entry for “QVQLVESGRGLFQSGGSLRLSCAASGRTFVPYAMGWYRQAPGKESELVAAISYSGDSTYYADSVKGRFTISRDNAKNTVYLQMKSLIPEDTAVYYCAKRGPVRNTAYDYWGQGTQVTVSS” is “low polyreactivity”.
On to “QVQLVESGGGLVQAGGSLRLSCAASGRIIYGYAMGWDRQAPGKEREFVARINVSGTSTFYADSVKGRFTISRDNAKNTVYLQMNSLKTVDTAVYDCAARGLPSNYYYYVHGYIMDHWGQGTQVSVSS”, for which the “polyreactivity (PSR sort gate)” value is “low polyreactivity”.
Turning to “QVQLVESAGGLVQAGGSLRLSCAASGSTFYAYVMGWYRPAPGKARELVAAISKGGGSTYYADSVKGRFTISRDNAKNTVYLQMNSLKPEDTAVYYCAAYASYSNYRKYNYWGQGTQVTVSS”, the “polyreactivity (PSR sort gate)” value was “high polyreactivity”.
Regarding “QVQLVESGGGLVQAGGSLRLSCAASGRIFRYYAMGWYIQAPGKERELVAAISGSGGSTYYADSVKGRFTISRDNAKNTVYLQMNSLKPEDTAVYYCNARYRIPSGEGDHWGQGTQVTVSS”, the “polyreactivity (PSR sort gate)” value is reported as “low polyreactivity”.
Turning to “QVQLVESGGGLVQAGGSLRLSCAASGSTFAYNTMGWYRQAPGKERELVAAISQRGGSTYADSVKGRFTISRDNAKNTVYLQMNSLKPEVTAVYYCNKRNVYYSYPFDYDYWGQGTQVTVSS”, the “polyreactivity (PSR sort gate)” value is “low polyreactivity”.
Take “QVQLVESGGGLVQAGGSLRLSCAASGSTFGYYTMGWYRQAPGKERELVAAITWLGGRTYYADSVKGRFTISRDNAKNTVYLQMNSLKPEDTAVYYCAARSTVLMDYWGQGTQVTVSS”: the “polyreactivity (PSR sort gate)” value was “high polyreactivity”.
For the sequence “QVQLVESGGGLVQAGGSLRLSCAASGSIFVYKAMGWYRQAPGKERELVAGITFIGGSTYYADSVKGRFTISRDNAKNTVYLQMNCLKPEDTAVYYCNADVAPGIFYGYDSWGQGTQVTVSS”, the “polyreactivity (PSR sort gate)” value was “low polyreactivity”.
Next, “QVQLVESGGGLVQAGCSLRLSCAASGFTFFRNAMGWYRQAPGKERELVAAISGSGGSTYYADSVKGRFTISRDNAKNTVYLQMNSLKPEDTAVYYCATYSYPAKVREAYNYWGQGTQVTVSS”: “low polyreactivity”; “QVQLVESGGGLVQAGGSLRLSCAASGRTMYRNAMGWYRQAPGKERELVDDISRSGGSTFYADSVKGRFTISRDNAKNTVYLQMNSLKPEDTAVYYCNADYQEYVSGYDYWGQGTQVTVSS”: “high polyreactivity”.
For the sequence “QVQHVESGGGLVQAGGSLRLSCAASGRIFPYYAMGWYRQAPGKEREFVAAITKRGGSTSYADSVKGRFTISRDNAKNTVYLQMNSLKPEDTAVYYCAAAGVYYGVRGTTYAYDYWGQGTQVTVSS”, the “polyreactivity (PSR sort gate)” value was “low polyreactivity”.
Take “QVQLVESGGGLDQAGGSLRLSCAASGSTFRSNAMGWYRQAPGKERELVAGITSGTSTNYADSVKGRFTISRDNAKNTVYLQMNSLKPEDTAVYYCNTDRIWYGPEYDYWGQGTQVTVSS”: the “polyreactivity (PSR sort gate)” value is on record as “low polyreactivity”.
As to “QGQLVESGGGLVQAGGSLRLSCAASGFIFDNNAMGWYRQAPGKERELVAAISFSAGSTYYADSVKGRFTISRDNAKNTVYLQMNSLNPEDTAVYYCNADDWWGGYDYWGQGTQVTVSS”, the “polyreactivity (PSR sort gate)” value is “low polyreactivity”.
As to “KVQLVESGGGLVQAGGSLRISCAASGFIFVDYAMGWYRQAPGKERELVAAISSSGSTTYADSVKGRFTISRDNAKNIVYLQMNSLKPEDTAVYYCNADAEVVPGEYDYWGQGTQVTVSS”, the “polyreactivity (PSR sort gate)” value was “low polyreactivity”.
On to “QVQLVESGGGLVQAGGSLRLSCAASGFIFRYNTMGWYRQAPGKERELVATINRSGGSTYYADSVKGRFTISRDNAKNTVYLQMNSLKPEDTAVYYCAARSGTRWRSGYYYWGQGTHVTVSS”, for which the “polyreactivity (PSR sort gate)” value is on record as “high polyreactivity”.
As to “QVQLVESGGGLVQAGGSLRLSCAASGRTDFNTMGWYRQAPGKERELVAAITSTGRTYYADSVKGRFTISRDNAKNTVYLQMNSLKPEDTAVYFCAAVWRYKGLLLPSYYYWGQGTQVTVSS”, the “polyreactivity (PSR sort gate)” value was “high polyreactivity”.
Consider “QVQLVESGGGLVQAGGSLRLSCAASGSIFYYAMGWYRQAPGKERELVAAITWRGGRTYYADSVKGRFTISRDNAKNTVYLQMNSLKPEDTAVYYCNAVAPGKYNHWGQGTQVTVSS”, for which the “polyreactivity (PSR sort gate)” value was “high polyreactivity”.
On to “QVQLVESGGGLVQAGGSLRLSCAASGFTFYVYAMGWYRQAPGKERELVAAISRGGSTYYADSVKGRFTISRDNAKNTVYLQMNSLKPEDTAVYYCNRVPYVSSSKVRYSNGFDYWGQGTQVTVSS”, for which the “polyreactivity (PSR sort gate)” value is given as “low polyreactivity”.
Next, “QVQLVESGGGLVQAGGSLRLSCAASGYTFYQYAMGWYRQAPGKESELVADISRSGVSTYYADSVKGRFTISRDNAKNTVYLQMNSLKPEDTAVYYCAARRPFYRQLDYWGQGTQVTVSS”: “high polyreactivity”; “QVQLVESGGGLVQAGGSLRLSCAASGSTFPLYAMGWYRQAPGKERELVAAITSGGGNTYYADSVKGRFTISRDNAKNTVYLQMNRLKPEDTAVYYCAAVGGYKSYYSYEYDYWGQGTQVTVSS”: “low polyreactivity”.
Take “QVQLVESGGCLVQAGGSLRLNCAASGGTFVNNDMGWYRQAPGKERELVAAIRSAGTTYYADSVKGRFTISRDNAKNSVYLQMNSLKPVDTAVYYCNADTTGYWSYGFQYYGEDYWGQGTQVTVSS”: the “polyreactivity (PSR sort gate)” value is reported as “low polyreactivity”.
In the case of “QVQLVESGGGLLKAGGSLRLSCAASGFTVDGYGMGWYRQAPGKERELVAVITSGGSTKYADSVKGRYTISRDNAKITVYLQMKSLKPEDTAVYYCNVVGGRYLYSAYDYWGQGTQVTVSS”, the “polyreactivity (PSR sort gate)” value was “low polyreactivity”.
Next, “QVQLVESGGGLVQAGGSLRLSCAASGSTFPFYAMGWYRQAPGKERELVAAITSGGSTYADSVKGRFTISRDNAKNTVYLQMNSLKAEVTAVYYCAASWPRWWRFGYWGQGTQVSVSS”: “low polyreactivity”.
The entry for “QVQLVESGGGLVQAGGSLRLSCAASGNIFSDNAMGWYRQAPGKERELVATITSSGVSTYYADSVKGRFTISRDNAKNTVYLQMNSLKPEDTAVYYGAVQGFRYHSREYDYWGQGTQVTVSS” is “low polyreactivity”.
Turning to “QVQHVESGGGLVQAGGSLLLSCAASGFIFKSNAMGWYRQAPGKERELVAAITSSGGRTYYADSVKGRFTISRDNAKNTVYLQMNSLKPEDTAVYYCAADIALGRYYYWGQGTQVTVSS”, the “polyreactivity (PSR sort gate)” value is on record as “high polyreactivity”.
For “QVQLVESGGGLVQAGGSLRLSCAASGIIIRYYGMGWYRQAPGKERELVARIRWTGGSTYYADSVKGRFTISRDNAKNTVYLQMNSLKPEDTAVYYCAAAWWSYKFNRDFDYWGQGTQVTVSS”, the “polyreactivity (PSR sort gate)” value was “low polyreactivity”.
Next, “HDQLVESGGGFVQAGGSLRLSCAASGSIFRYNPMGWYRQAPGKEMELVAAISYGGGITRYADSVKGRFTISRDNAKNTVYLQMNSLKPEDTAVYYCNKAYVWRRMDYWGQGTQVTVSS”: “high polyreactivity”.
Turning to “QVQLVESGGGLVQAGGSLRLRCAASGRTFYVYAMGWYRQAPGKERELVATNNTGGSTYYADSVKGRFTISRDNAKNTVYLQMNSLKPEDTAVYYCAARYNPYYIRFGFDKSFYYWGQGTQVTVSS”, the “polyreactivity (PSR sort gate)” value is given as “low polyreactivity”.
For “QVQLVESGGGLVQAGGSLRISCAASGLSFYRYTMGWYRHAPGKEREFVAAITAGGSTYYADSVKGRFTISRDNAKNPVYLQMNRLKPEDTAVYYCAPRVLMEQYTYIKYDYWGQGTQVTVSS”, the “polyreactivity (PSR sort gate)” value is listed as “high polyreactivity”.
Next, “QVQLVESGGGLVQAGGSLRLSCAASGSIFADYTMGCYRQAPGKERELVAAITGGGGRTYYADSVKGRFTISRDNAKNTVYLQMNSLKPEDTAVYYCAADFHDDHTSFDYWGQGTQVTVSS”: “low polyreactivity”; “QVQLVESGGGLVQAGGSLRLSCAASGRTSWVNAMGWYRQAPGKERELVAAIVSGGTTKYADSVKGRFTISRDNAKNTVYLQMNSMKPEDTAVYYCAAALGLGGQKTRRYEYWGQGTQVTVSS”: “high polyreactivity”.
The entry for “QVQLVESGGGLVQAGGSLRLSCAASGGTFGYNAMGWYRQAPGKERELVAAITGGGRTYYADSVKGRFTISRDNAKNTVYLQMNSLKPEDTAVYYCNADYAYYSYDYWGQGTQVTVSS” is “low polyreactivity”; for “QVQLEESGGGLFQAGGSLRLSCAASGSTFYAYAMGWYRQAPGKERELVAAISSDGTNYADSVKGRFTISRDNAKNTVYLQMNSLKPEDTAVYYCAADMLLYSSQDNDYWGQGTLVTVSS” it is “low polyreactivity”.
